This note sets out measurements from patent US20200308591A1, “PROMOTER REGION ANALYSIS METHODS AND CELLS FOR PRACTICING SAME” (Eurofins DiscoverX Corporation, priority 2019, published 2020).

Read-outs that look alike come from different tables or passages of the source.

Experiment [1] has as its system NFAT signaling pathways. Put plainly: U2OS NFAT EFC reporter assay, PMA/ionomycin stimulation. The class given is cell-based. The conditions noted are these: 5,000 cells, stimulated 20h, components given together as cocktail, read-out: potency of the cocktail expressed as component concentration. As for the experimental part:
NFAT EFC Reporter construct includes a promoter with 4 tandemly repeated (4×) NFAT transcription factor binding response elements, each having the sequence: […] (SEQ ID NO:5).
Cells were stimulated for 20h followed by detection by PathHunter® FLASH detection reagent (+Enzyme Acceptor (EA)) with cell lysis for 1h. 5K and 10K refers to the number of cells plated in each well of a 384 well plate. S/B is signal (top) over background (bottom) of the assay response curve.
A “cell stimulation” cocktail of phorbol 12-myristate 13-acetate (PMA) and ionomycin is known to activate “NFAT signaling pathways” and the NFAT transcription factor. […] Inhibition could be detected as decreases in relative light units (RLUs) with test compounds in the presence of stimulating doses of cell stimulation cocktail or other activating ligands.
(In general: Reporter assays use an easily measured gene product as a stand-in for the process of interest.)

For experiment [2], the system named is IL2 promoter. Put plainly: Jurkat IL2-promoter EFC reporter assay. The conditions noted are these: 5K cells, stimulated 16h; ionomycin via NFAT, PMA via AP-1 response elements. In kind it is cell-based. From the text:
FIG. 9. Plasmid map for IL2-Promoter-EFC Reporter Plasmid. In this reporter construct, the complete endogenous IL2 gene promoter (“IL2prom”), which contains multiple specific transcription factor binding sites is fused upstream of and drives expression of carrier protein-ePL which is fused to a carrier protein. Contained within the IL2 promoter are binding sites for NFAT (1), NFkB (2), OCT (3), ARRE-2 (4) and NFAT/API (6) transcription factors and the IL2 minimal promoter (7). The DNA sequence of the IL2 promoter used is gtac[…]gctag (SEQ ID NO: 11) and is comprised of 8 different transcription factor binding sites and an IL-2 core promoter as described by Weaver et. al. (Molecular Immunology, 6 Mar. 2007, 44(11):2813-2819). The following 8 DNA elements […] (SEQ ID NO: 12), […] (SEQ ID NO:13), […] (SEQ ID NO:14), […] (SEQ ID NO:15), […] (SEQ ID NO:16), […] […]
FIG. 10. […] 5K Jurkat IL2 promoter reporter cells were plated in wells of 384 well plate and stimulated for 16h with either […] (squares) or […]+CD28 antibody (circles) at 37′C prior to adding FLASH detection reagent (+5×EA) with cell lysis (and reading EFC luminescence). […]
FIG. 11. […] 5K cells were plated in wells of 384 well plate and stimulated for 16h prior to adding FLASH detection reagent (+5×EA) with cell lysis (and reading luminescence). S/B is calculated by taking the RLU (with PMA/ionomycin)/RLU (without PMA/ionomycin).

Experiment [3] deals with human T-cell receptor CD3 subunit on Jurkat cells (human) (UniProt P07766). Kind of experiment: cell-based or functional assay.
Experiment [4] concerns the target T1, IL-6 receptor (Homo sapiens, UniProt P08887).
T1 construct: uses endogenous IL-6 receptor in HepG2 cells to detect IL-6 signaling; endogenous in cells; host or cells: HepG2
T1 sequence (P08887 20-468): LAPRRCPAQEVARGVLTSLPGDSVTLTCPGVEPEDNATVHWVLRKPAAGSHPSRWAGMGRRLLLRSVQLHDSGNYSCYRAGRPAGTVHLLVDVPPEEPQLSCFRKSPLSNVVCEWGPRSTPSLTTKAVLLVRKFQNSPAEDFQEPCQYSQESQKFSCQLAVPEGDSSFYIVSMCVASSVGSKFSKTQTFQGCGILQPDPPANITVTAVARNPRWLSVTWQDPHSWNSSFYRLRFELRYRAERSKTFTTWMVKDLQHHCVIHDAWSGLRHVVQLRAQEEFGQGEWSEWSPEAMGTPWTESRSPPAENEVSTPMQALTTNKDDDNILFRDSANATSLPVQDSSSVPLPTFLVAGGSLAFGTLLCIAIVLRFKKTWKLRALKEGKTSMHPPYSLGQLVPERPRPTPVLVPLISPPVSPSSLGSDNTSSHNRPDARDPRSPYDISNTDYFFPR
T1 sequence (P40189 23-918 partner): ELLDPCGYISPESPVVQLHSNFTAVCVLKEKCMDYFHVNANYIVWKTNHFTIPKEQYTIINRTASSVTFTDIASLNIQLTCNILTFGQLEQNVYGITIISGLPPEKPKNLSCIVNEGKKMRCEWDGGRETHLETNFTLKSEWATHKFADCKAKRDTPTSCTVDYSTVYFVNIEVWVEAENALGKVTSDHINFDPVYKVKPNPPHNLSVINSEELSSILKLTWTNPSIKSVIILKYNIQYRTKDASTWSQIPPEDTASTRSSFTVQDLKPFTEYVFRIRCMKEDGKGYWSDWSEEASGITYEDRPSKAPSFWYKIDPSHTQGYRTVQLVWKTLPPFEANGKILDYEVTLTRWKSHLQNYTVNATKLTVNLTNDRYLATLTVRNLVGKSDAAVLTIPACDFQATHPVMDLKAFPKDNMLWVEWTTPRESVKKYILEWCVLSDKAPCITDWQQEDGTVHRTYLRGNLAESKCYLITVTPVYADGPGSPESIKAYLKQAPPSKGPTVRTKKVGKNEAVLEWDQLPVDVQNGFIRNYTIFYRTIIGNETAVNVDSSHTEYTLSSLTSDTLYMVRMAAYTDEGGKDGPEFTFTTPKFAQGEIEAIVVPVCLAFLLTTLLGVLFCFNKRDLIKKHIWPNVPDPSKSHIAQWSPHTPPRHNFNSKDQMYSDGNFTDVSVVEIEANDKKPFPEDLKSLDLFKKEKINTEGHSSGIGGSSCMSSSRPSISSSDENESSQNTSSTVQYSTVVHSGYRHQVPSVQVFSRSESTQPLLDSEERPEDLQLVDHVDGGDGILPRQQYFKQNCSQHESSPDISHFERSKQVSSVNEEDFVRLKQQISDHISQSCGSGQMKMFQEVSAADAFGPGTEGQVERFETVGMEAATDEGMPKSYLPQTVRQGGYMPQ
Put plainly: HepG2 STAT3 pathway reporter cell line (Example 9). The class given is cell-based. The following applies: 5000 cells/well; 16 h at 37 °C. From the text: A reporter cell line was engineered to express an Enzyme Donor (ED) tagged carrier protein controlled by a pathway-inducible transcriptional response element. Pathway activation results in induced expressions of the ED-tagged protein. Addition of exogenous Enzyme Acceptor (EA), and buffer, lyses the cell and forces complementation of the ED and EA enzyme fragments.
In this example, the cell line is a STAT3 (signal transducer and activator of transcription 3) pathway reporter cell line. The cells are HepG2 cells that include a nucleic acid encoding a β-galactosidase donor fragment (ED) having the amino acid sequence […] (SEQ ID NO:30) operably coupled to a promoter region comprising a STAT3 response element.
Cells were plated in a 96-well plate and incubated at 37° C. and 5% CO2 to allow the cells to attach and grow. Cells were then stimulated with a control agonist (here, IL-6), using the assay conditions described below. Following stimulation, signal was detected using the PathHunter® ProLabel®/ProLink™ Detection Kit (Eurofins DiscoverX Corporation) according to the recommended protocol.
Cell line for HepG2 STAT3 assay uses endogenous IL-6 receptor in HepG2 cells to detect IL-6 signaling.

The target of experiment [5] is endogenous IL-6 receptor in HepG2 cells (UniProt P08887). Kind of experiment: cell-based or functional assay.
Experiment [6] concerns the target CD40 receptor, endogenous in U2OS NFκB EFC reporter cells (UniProt P25942). Put plainly: cell-based or functional assay.
In experiment [7] the target is TNFα (Homo sapiens, UniProt P01375). Put plainly: U2OS NFkB EFC reporter assay, inhibition of TNFα-stimulated NF-κB signaling. In kind it is cell-based. As for the experimental part:
FIG. 5. Screening of inhibitors using U2OS NFkB EFC reporter cell-based assay. U2OS NFkB EFC reporter cells were treated with 2 nM TNFα (agonist) with or without various concentrations (and 3 lots) of anti-TNFα inhibitor adalimumab. In this example, the 3 lots of Humira tested were all derived from lot #1047318 run through a forced degradation protocol to simulate decreased specific activity or loss of activity where samples were non-stressed (e.g. the control), stressed 70° C. for 15 min and stressed 70° C. for 30 min.
U2OS NF-κB EFC Reporter cells can also be used to measure inhibition and study inhibitors of NF-κB signaling. […] The dose-dependence of this inhibitory response allowed measurement of the potency of different lots of adalimumab. […] Note that forced degradation is a method used in development of assay for biologics (protein therapeutics) to simulate lots with different potency, e.g. for QC/lot release assays, or loss of potency from various causes. […] The stability of Humira® over time can also be studied using this assay. It can be seen that two lots of Humira® stored at 4° C.
FIG. 6. […] The stability of expired lot #1017235 was also equivalent to that of lot #1047318 in the forced degradation experiment shown in FIG. 5.

Chain of CD40 receptor, endogenous in U2OS NFκB EFC reporter cells (P25942 21-277 limits assumed): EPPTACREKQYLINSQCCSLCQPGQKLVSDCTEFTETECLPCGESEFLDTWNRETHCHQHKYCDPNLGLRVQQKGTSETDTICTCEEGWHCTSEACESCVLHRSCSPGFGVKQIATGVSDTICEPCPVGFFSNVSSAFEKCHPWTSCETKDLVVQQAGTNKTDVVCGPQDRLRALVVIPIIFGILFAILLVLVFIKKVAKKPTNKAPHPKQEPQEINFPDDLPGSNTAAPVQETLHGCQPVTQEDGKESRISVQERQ
Chain of CD40 ligand (CD40L) (P29965 113-261 limits assumed): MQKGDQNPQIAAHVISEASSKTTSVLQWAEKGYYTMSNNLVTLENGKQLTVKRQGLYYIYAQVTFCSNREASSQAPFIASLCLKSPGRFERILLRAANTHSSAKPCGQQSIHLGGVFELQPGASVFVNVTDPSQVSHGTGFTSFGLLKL
Chain of TNFα (P01375 77-233 limits assumed): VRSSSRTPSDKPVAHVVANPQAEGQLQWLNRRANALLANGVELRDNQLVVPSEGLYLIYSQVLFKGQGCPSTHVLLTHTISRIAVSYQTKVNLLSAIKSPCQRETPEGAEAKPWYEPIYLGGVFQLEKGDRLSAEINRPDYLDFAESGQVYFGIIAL
Chain of IL-6 (P05231 30-212 limits assumed): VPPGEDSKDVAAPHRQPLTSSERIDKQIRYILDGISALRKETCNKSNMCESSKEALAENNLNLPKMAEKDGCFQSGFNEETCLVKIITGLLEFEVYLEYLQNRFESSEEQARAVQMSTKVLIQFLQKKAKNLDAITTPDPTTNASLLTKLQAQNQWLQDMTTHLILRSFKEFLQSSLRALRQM

On to `C[C@H](CCC(=O)O)C[C@H](C)C[C@H](C)C(=O)/C=C(\O)[C@H](C)C[C@H](C)C/C=C/[C@@H](C)[C@@H](O)[C@@H](C)[C@@H](O)C[C@@H]1CC[C@@](C)([C@H]2CC[C@@](C)([C@@H](C)O)O2)O1` [ionomycin], for which the EC50 in experiment [1] (Homo sapiens, U2OS) is 0.063 µM. Further, the “activation of elements in the IL2-promoter EFC reporter construct” value in experiment [2] was “increase the activation”.
With anti-CD3 antibody [OKT3], in experiment [3], the EC50 for control agonist stimulation, Jurkat NFAT pathway reporter cell line (Example 8, plate-coated antibody) stood at 0.302 µg/mL and the signal:background ratio at agonist EMAX, Jurkat NFAT pathway reporter cell line (Example 8) is 7.6.
Take “IL-6: control agonist signalling through endogenous IL-6 receptor in HepG2 cells”: in experiment [4], the “EC50 for control agonist stimulation” value came to 0.000601 µg/mL and the “signal:background ratio at agonist EMAX” value came to 21.3.
As for “IL-6 (from UniProt P05231 30-212) (ligand)”, in experiment [5], the EC50 for control agonist stimulation, HepG2 STAT3 pathway reporter cell line was found to be 0.000601 µg/mL and the signal:background ratio at agonist EMAX, HepG2 STAT3 pathway reporter cell line was determined as 21.3.
In the case of “OKT3 ligand expressed and presented on the surface of CHO-K1 cells (scFv)”, the EC50 of stimulating OKT3 cells, Jurkat NFAT EFC reporter co-culture assay in experiment [3] is 700 cells.
As to “CD40 ligand (CD40L) (from UniProt P29965 113-261)”, in experiment [6], the EC50 for control agonist stimulation, U2OS NF-κB pathway reporter cell line (Example 12) amounted to 0.0886 µg/mL; the EC50 for control agonist stimulation, U2OS NFκB pathway reporter cell line (Example 7) was 0.225 µg/mL; the signal:background ratio at agonist EMAX, U2OS NFκB pathway reporter cell line (Example 7) was determined as 26.3; the signal:background ratio, U2OS NF-κB pathway reporter cell line (Example 12) was found to be 103.
Consider `CCCCCCCCCCCCCC(=O)O[C@@H]1[C@@H](C)[C@@]2(O)[C@@H](C=C(CO)C[C@]3(O)C(=O)C(C)=C[C@@H]23)[C@@H]2C(C)(C)[C@]12OC(C)=O` [PMA, phorbol 12-myristate 13-acetate], for which the EC50 in experiment [1] was 0.0038 µM. Besides, the “activation of elements in the IL2-promoter EFC reporter construct” value in experiment [2] is reported as “increase the activation”.
Turning to adalimumab, the “inhibition of TNFα-stimulated NF-κB signaling” value in experiment [7] (2 nM TNFα (agonist)) is “can inhibit”. In addition, the “change of inhibitory potency after forced degradation” value in experiment [7] (samples subjected to forced degradation for 0, 15 or 30 min at 70° C.) is “graded loss of potency (right shift)”.
